{"source": "paper PMC5764468", "about": "(PLoS Biology, 2017)", "binders": {"B1": {"name": "CaM-binding peptide (P_(MLCK)) from the smooth muscle myosin light-chain kinase (peptide)", "peptide": "Ac-RRKWQKTGHAVRAIGRLSS-NH2", "notes": "also called myosin light-chain kinase peptide; MLCK peptide"}}, "biological_target": "T1, Human calmodulin (CaM) (human, UniProt P0DP23 1-149)", "T1 construct": "also called full-length CaM", "assay": "SEC-SAXS", "conditions": "both partners purified", "data": [{"binder": "B1", "values": [{"measurement": "stoichiometry N", "result": "1 P_(MLCK) per CaM"}]}]}
